Experiment [1] has as its target T1, Aβ17-40 peptide.
T1 peptide: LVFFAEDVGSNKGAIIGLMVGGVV
Nature of the experiment: SPR, peptide flowed over 6G mAb on CM5 chip; reference Aβ1-40.

The target in experiment [2] is T2, Aβ28-42 peptide.
T2 peptide: KGAIIGLMVGGVVIA
The experiment is described as above.

The target in experiment [3] is T3, Aβ22-35 peptide.
T3 peptide: EDVGSNKGAIIGLM
Described as above.

In experiment [4] the target is Aβ1-36 peptide. The experiment is described as above.
The target in experiment [5] is Aβ1-39 peptide. Described as above.
In experiment [6] the target is T4, Aβ1-42 peptide.
T4 construct: also called 1-42 (WT)
Described as above.

Experiment [7] has as its target Aβ1-38 peptide. The description is as above.
Experiment [8] addresses T5, Aβ28-40-NH2 peptide (carboxy-terminal amidated).
T5 peptide: KGAIIGLMVGGVV-NH2
The experiment is described as above.

In experiment [9] the target is Aβ1-37 peptide. The experiment is described as above.
In experiment [10] the target is T6, Aβ28-40 peptide.
T6 peptide: KGAIIGLMVGGVV
The experiment is described as above.

The target of experiment [11] is T7, Aβ17-42 peptide.
T7 peptide: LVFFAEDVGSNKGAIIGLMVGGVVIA
The experiment is described as above.

Experiment [12] addresses T1, Aβ17-40 peptide. In words: SPR, peptide flowed over 6G mAb on CM5 chip.
The target in experiment [13] is T2, Aβ28-42 peptide. In words: SPR, peptide flowed over 6G mAb on CM5 chip.
For experiment [14], the target named is T3, Aβ22-35 peptide. Nature of the experiment: SPR, peptide flowed over 6G mAb on CM5 chip. In general terms: In SPR one partner is held on a chip, and binding of the other changes the refractive index at the surface.
Experiment [15] concerns the target Aβ1-36 peptide. Nature of the experiment: SPR, peptide flowed over 6G mAb on CM5 chip.
Experiment [16] has as its target Aβ1-39 peptide. Nature of the experiment: SPR, peptide flowed over 6G mAb on CM5 chip.
For experiment [17], the target named is T4, Aβ1-42 peptide. In words: SPR, peptide flowed over 6G mAb on CM5 chip.
Experiment [18] addresses Aβ1-38 peptide. Nature of the experiment: SPR, peptide flowed over 6G mAb on CM5 chip.
Experiment [19] addresses T5, Aβ28-40-NH2 peptide (carboxy-terminal …). In words: SPR, peptide flowed over 6G mAb on CM5 chip.
For experiment [20], the target named is T8, Aβ1-40 peptide.
T8 construct: synthetic peptide, not biotinylated; also called 1-40 (WT); beta amyloid 1-40
Nature of the experiment: SPR, peptide flowed over 6G mAb on CM5 chip.

Experiment [21] concerns the target Aβ1-37 peptide. Nature of the experiment: SPR, peptide flowed over 6G mAb on CM5 chip.
The target of experiment [22] is T6, Aβ28-40 peptide. In words: SPR, peptide flowed over 6G mAb on CM5 chip.
For experiment [23], the target named is T7, Aβ17-42 peptide. In words: SPR, peptide flowed over 6G mAb on CM5 chip.
The target of a further experiment is T9, Aβ1-43 peptide.
T9 construct: also called 1-43 (WT)
In words: SPR, peptide flowed over 6G mAb on CM5 chip.

In the next experiment the target is Aβ1-28 peptide. In words: SPR, peptide flowed over 6G mAb on CM5 chip.
Experiment [24] has as its target T10, biotinylated Aβ 19-33 peptide with C-terminal glycine (also: biotinylated, site not given here).
T10 peptide: FFAEDVGSNKGAIIGG
In words: ELISA on biotinylated peptides on streptavidin plates. The method, then: (§1) ELISA was used for measuring binding of antibody 6G and variants to biotinylated Aβ peptides. NUNC maxisorp plates were coated with 6 ug/ml of streptavidin (Pierce, 21122) in PBS pH 7.4 for more than 1 h at 4° C. Plates were blocked with 1% BSA in PBS buffer pH 7.4. After washing, biotinylated Aβ peptides in PBS pH 7.4 were incubated 1 hour at room temperature. Primary antibody (from cell supernatants, serum containing anti-Aβ antibody, or purified full antibody or Fabs at desired dilution) was incubated with the immobilized Aβ peptides for 1 h at room temperature. After washing, plates were incubated with secondary antibody, a HRP conjugated goat anti-human kappa chain antibody (MP Biomedicals, 55233) at 1:5000 dilution. After washing, bound secondary antibody was measured by adding TMB substrate (KPL, 50-76-02, 50-65-02). HRP reaction was stopped by adding 1M phosphoric acid and absorbance at 450 nm was measured.
(§2) Epitope mapping of antibody 6G was performed by ELISA assay. Biotinylated 15-mer or 10-mer of various Aβ peptides (these peptides have glycine added to the C-terminal end) were immobilized on streptavidin coated plates. Antibody 6G (from 2.5 ug/ml to 10 ug/ml) was incubated with the immobilized peptides and binding was measured as described above.
(In an ELISA, binding on a coated surface is turned into a signal by an enzyme label.)

Experiment [25] deals with T11, biotinylated Aβ 26-35 peptide with C-terminal glycine (also: biotinylated, site not given here).
T11 peptide: SNKGAIIGLMG
The description is as above. As for the experimental part: as §1, §2

Experiment [26] deals with T12, biotinylated Aβ 26-40 peptide with C-terminal glycine (also: biotinylated, site not given here).
T12 peptide: SNKGAIIGLMVGGVVG
The description is as above. As for the experimental part:
as §1, §2

In experiment [27] the target is T13, biotinylated Aβ 27-41 peptide with C-terminal glycine (also: biotinylated, site not given here).
T13 peptide: NKGAIIGLMVGGVVIG
The description is as above. The method, then:
as §1, §2

For experiment [28], the target named is T14, biotinylated Aβ 24-33 peptide with C-terminal glycine (also: biotinylated, site not given here).
T14 peptide: VGSNKGAIIGG
Described as above. As for the experimental part: as §1, §2

Experiment [29] deals with T8, Aβ1-40 peptide. Nature of the experiment: SPR, peptide flowed over 6G mAb on CM5 chip; the reference itself.
For another experiment, the target named is T15, Aβ33-40 peptide.
T15 construct: also called C-terminal peptide (33-40) of Aβ1-40
T15 peptide: GLMVGGVV
Nature of the experiment: ELISA on immobilized Aβ peptides. As for the experimental part:
(§3) To determine the epitope on Aβ peptide that is recognized by antibody 6G, ELISA binding analysis was used. Various Aβ peptides (Global Peptide Services, CO) was immobilized on a ELISA plate. The binding of 6G full antibody (at 20 nM) to the immobilized Aβ was determined by ELISA as described above. […] Thus, antibody 6G binds to the C-terminus of various truncated Aβ peptide, for example, 22-35, 1-38, 1-40, 1-42, and 1-43.

The next experiment addresses T16, Aβ1-16 peptide.
T16 peptide: DAEFRHDSGYEVHHQK
In words: ELISA on immobilized Aβ peptides. The method, then: as §3

For experiment [30], the target named is T17, N-biotinylated Aβ1-43 peptide (N-biotinylated).
T17 construct: captured on SA chip
In words: SPR, Fab over N-biotinylated peptide on SA chip. As for the experimental part:
(§4) Affinities of 7G10 antibody were determined using BIAcore3000® as described previously in Example 1. N-biotinylated Aβ1-40, 1-42, and 1-43 were captured on SA chip. Threefold dilution series of anti-Aβ1-40 Fabs, anti-Aβ1-42 Fabs, and anti-Aβ1-43 Fabs respectively, were injected starting with a ⅙ dilution of the 7G10 stock listed above. The chip was regenerated with an 18 sec pulse of 6% EtOH+6 mM NaOH.

The target in experiment [31] is T18, biotinylated Aβ1-42 peptide (biotinylated (N-biotinylated in Example 7)).
T18 construct: captured on streptavidin chip; also called N-biotinylated Aβ1-42
Nature of the experiment: SPR, Fab over N-biotinylated peptide on SA chip. As for the experimental part:
as §4

Experiment [32] concerns the target T19, biotinylated Aβ1-40 peptide (biotinylated (N-biotinylated in Example 7)).
T19 construct: captured on streptavidin (SA) chip; also called Biotinylated Aβ peptide 1-40; Aβ1-40 on SA chip
In words: SPR, Fab over N-biotinylated peptide on SA chip. The method, then: as §4

Where no end group is shown, it is not given here.

Chain of Aβ1-39 peptide (peptide, as listed by the source): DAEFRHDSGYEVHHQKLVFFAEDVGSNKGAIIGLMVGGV
Chain of Aβ1-36 peptide (peptide, as listed by the source): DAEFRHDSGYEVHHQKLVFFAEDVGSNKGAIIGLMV
Chain of Aβ1-38 peptide (peptide, as listed by the source): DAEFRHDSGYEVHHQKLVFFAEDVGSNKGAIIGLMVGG
Chain of Aβ1-37 peptide (peptide, as listed by the source): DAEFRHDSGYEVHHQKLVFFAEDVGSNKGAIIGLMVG
Chain of Aβ1-28 peptide (peptide, as listed by the source): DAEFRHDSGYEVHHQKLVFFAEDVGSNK
T9 sequence (peptide, as listed by the source): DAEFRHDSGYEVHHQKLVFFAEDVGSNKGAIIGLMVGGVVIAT

B1: antibody 6G (full monoclonal antibody) (antibody, human IgG2, kappa, V domains shown)
VH: QVQLVQSGAEVKKPGASVKVSCKASGYTFTTYAIHWVRQAPGQGLEWMGFTSPYSGVSNYNQKFKGRVTMTRDTSTSTVYMELSSLRSEDTAVYYCARFDNYDRGYVRDYWGQGTLVTVSS
VL: DIVMTQSPDSLAVSLGERATINCRASESVDNDRISFLNWYQQKPGQPPKLLIYAATKQGTGVPDRFSGSGSGTDFTLTISSLQAEDVAVYYCQQSKEFPWSFGGGTKVEIKR
notes: human IgG2a constant region with A330P331 to S330S331; human kappa light chain; also called 6G full antibody; 6G monoclonal antibody
Broadly, the koff is the rate constant with which the complex falls apart. Higher therefore signals a short-lived complex. As for B1, the “koff Aβ peptide/koff Aβ1-40 (fold loss of affinity)” value amounted to 1.6 fold with Aβ17-40 peptide [1]; 25.5 fold with Aβ28-42 peptide [2]; 216 fold with Aβ22-35 peptide [3]; 155 fold with Aβ1-36 peptide [4]; 60 fold with Aβ1-39 peptide [5]; 14.4 fold with Aβ1-42 peptide [6]. Moreover, the “koff Aβ peptide/koff Aβ1-40 (fold loss of affinity)” value with Aβ1-38 peptide [7] worked out at 70.4 fold; in [8] it was 27.4 fold; in the experiment with Aβ1-37 peptide [9] it was 113 fold; with Aβ28-40 peptide [10], 4.8 fold; with Aβ17-42 peptide [11] it was 352 fold; in the experiment with Aβ1-40 peptide [29], 1 fold. Besides, the dissociation rate constant (koff) was found to be 0.000215 s⁻¹ with Aβ17-40 peptide [12]; 0.00337 s⁻¹ with Aβ28-42 peptide [13]; 0.0285 s⁻¹ with Aβ22-35 peptide [14]; 0.0205 s⁻¹ with Aβ1-36 peptide [15]; 0.00792 s⁻¹ with Aβ1-39 peptide [16]; 0.0019 s⁻¹ in the experiment with Aβ1-42 peptide [17]. In addition, the koff came out at 0.0093 s⁻¹ in the experiment with Aβ1-38 peptide [18]; 0.00362 s⁻¹ in [19]; 0.000132 s⁻¹ with Aβ1-40 peptide [20]; 0.0149 s⁻¹ with Aβ1-37 peptide [21]; 0.00064 s⁻¹ with Aβ28-40 peptide [22]; 0.0465 s⁻¹ in the experiment with Aβ17-42 peptide [23]. The binding result in the experiment with Aβ1-43 peptide was “binds”; with Aβ1-28 peptide, “no binding”; in experiment [24], “no binding (tested: 2.5 ug/ml to 10 ug/ml)”; in experiment [25] it was “no binding (tested: 2.5 ug/ml to 10 ug/ml)”; in experiment [26] it was “no binding (tested: 2.5 ug/ml to 10 ug/ml)”; in [27] it was “no binding (tested: 2.5 ug/ml to 10 ug/ml)”. For the same molecule, the binding result in experiment [28] was “no binding (tested: 2.5 ug/ml to 10 ug/ml)”; with Aβ33-40 peptide it was “no binding (tested: 20 nM)”; in the experiment with Aβ1-16 peptide, “no binding (tested: 20 nM)”.

B2: murine antibody 7G10 (Fab) (Fab, V domains shown)
VH: EVKLVESGGDLVKPGGSLKLSCAASGFTFSTYAMSWIRQTPEKRLEWVASIGNSSRTYYPDSVKGRFTISRDNAGSILYLQMSSLRSEDTAIYYCARGEDGNYAWFTYWGQGTQVTVS
VL: DIVLTQSPATLSVTPGDSVSLSCRASQSVKNNLHWYQQKSHESPRLLIKYTFQSMSGIPSRFSGSGSGTDFTLIINSVETEDFGMYFCQQSNRWPLTFGAGTKLEL
notes: Fab was injected in the Biacore assay; also called m7G10
Broadly, the Kd is a measure of binding affinity in units of concentration. Low readings indicate a tighter complex, high ones a looser complex. As to B2, the Kd in [30] came to 41 nM; in experiment [31], 37.6 nM. In addition, in experiment [32], the binding result was “no binding”.

The record behind these values is US20090022728A1 (RINAT NEUROSCIENCE, published 2009).
